# Reference: PMC10675646 (Viruses, 2023)
# Where no end group is shown, it is not given here. [ ]: non-standard residue; d: D form. SeMet = C[Se]CC[C@H](N)C(=O)O
# T1: TRAF2 TRAF-C domain (human TRAF2 residues 315-501), tag cleaved, for crystallization (human, UniProt Q12933 315-501)
# T1 sequence (looked up): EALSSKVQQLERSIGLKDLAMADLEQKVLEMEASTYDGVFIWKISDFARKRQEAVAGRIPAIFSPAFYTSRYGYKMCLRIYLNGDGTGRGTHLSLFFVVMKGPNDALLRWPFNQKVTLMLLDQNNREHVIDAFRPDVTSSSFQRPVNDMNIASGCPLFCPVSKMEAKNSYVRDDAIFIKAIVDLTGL
# Target: T1, TRAF2 TRAF-C domain (human TRAF2 …)
# Test: crystal structure
# Conditions: both partners purified
binder,measurement,value
RATATIP[SeMet]QASLPFGW,binding result,binds
